Literature values, collected in PMC7710720.

Biological target: Neurotensin (Homo sapiens) (UniProt P30990)

Kd: 6 nM
Substance: Neurotensin receptor 2 (from UniProt O95665)
